Source: patent publication US10941182 (Amgen, dated 2021)
Starred links: 1 amine or outer side, 2 acyl side, 3 side chain; linkers in the order of their positions; H or OH if unused. Non-standard residues stand in square brackets, D forms with d. Primed or numbered codes have the meaning given here. *: point of attachment. AC4Abu = α-carboxy-4-aminobutyric acid, O=C(C(CCN[*:1])C(=O)[*:3])[*:2]; dBip = N[C@H](Cc1ccc(-c2ccccc2)cc1)C(=O)O; Oic = O=C(O)[C@@H]1C[C@@H]2CCCC[C@@H]2N1; Phe(4-Cl) = N[C@@H](Cc1ccc(Cl)cc1)C(=O)O; Phe(4-I) = N[C@@H](Cc1ccc(I)cc1)C(=O)O; 2Nal = N[C@@H](Cc1ccc2ccccc2c1)C(=O)O; NMehArg = CN[C@@H](CCCCNC(=N)N)C(=O)O; NMeR = CN[C@@H](CCCNC(=N)N)C(=O)O; Tridecanoyl = CCCCCCCCCCCCC(=O)*; hArg = N=C(N)NCCCC[C@H](N)C(=O)O; Cha = N[C@@H](CC1CCCCC1)C(=O)O; NMeL = CN[C@@H](CC(C)C)C(=O)O; αMeL = CC(C)C[C@](C)(N)C(=O)O; αMeP = C[C@@]1(C(=O)O)CCCN1; AC4Abu″ = not defined here; Nle = CCCC[C@H](N)C(=O)O; Pip′ = not defined here; AEEA = NCCOCCOCC(=O)O; Aib = CC(C)(N)C(=O)O

T1: rat APJ receptor (rat, UniProt Q9JHG3 1-377)
T1 sequence (looked up): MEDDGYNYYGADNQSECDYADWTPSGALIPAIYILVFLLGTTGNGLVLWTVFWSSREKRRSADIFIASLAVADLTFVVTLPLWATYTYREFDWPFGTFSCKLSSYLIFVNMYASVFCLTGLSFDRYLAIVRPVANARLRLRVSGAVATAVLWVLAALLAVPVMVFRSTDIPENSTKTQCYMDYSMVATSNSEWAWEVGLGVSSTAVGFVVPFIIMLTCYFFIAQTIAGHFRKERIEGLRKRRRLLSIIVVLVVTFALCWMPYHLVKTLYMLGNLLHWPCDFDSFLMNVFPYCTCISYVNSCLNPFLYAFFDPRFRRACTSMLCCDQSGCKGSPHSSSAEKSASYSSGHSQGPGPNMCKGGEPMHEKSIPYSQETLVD

T2: rat APJ receptor (rat, UniProt Q9JHG3 1-377)
T2 sequence (looked up): T1 sequence (looked up)

B1: SEQ ID NO: 73 (peptide)
peptide: Ac-QR[NMehArg]LSHKGP[Nle]P[Phe(4-Cl)]-OH
SMILES: CCCC[C@H](NC(=O)[C@@H]1CCCN1C(=O)CNC(=O)[C@H](CCCCN)NC(=O)[C@H](Cc1c[nH]cn1)NC(=O)[C@H](CO)NC(=O)[C@H](CC(C)C)NC(=O)[C@H](CCCCNC(=N)N)N(C)C(=O)[C@H](CCCNC(=N)N)NC(=O)[C@H](CCC(N)=O)NC(C)=O)C(=O)N1CCC[C@H]1C(=O)N[C@@H](Cc1ccc(Cl)cc1)C(=O)O
B2: Apelin polypeptide SEQ ID NO: 419 (peptide)
peptide: Tridecanoyl-[AC4Abu][AEEA][AEEA]QRP[NMeR][Cha]SAKG[Oic][Nle]P[Phe(4-Cl)]-OH
SMILES: CCCCCCCCCCCCC(=O)NCCC(C(=O)O)C(=O)NCCOCCOCC(=O)NCCOCCOCC(=O)N[C@@H](CCC(N)=O)C(=O)N[C@@H](CCCNC(=N)N)C(=O)N1CCC[C@H]1C(=O)N(C)[C@@H](CCCNC(=N)N)C(=O)N[C@@H](CC1CCCCC1)C(=O)N[C@@H](CO)C(=O)N[C@@H](C)C(=O)N[C@@H](CCCCN)C(=O)NCC(=O)N1[C@H](C(=O)N[C@@H](CCCC)C(=O)N2CCC[C@H]2C(=O)N[C@@H](Cc2ccc(Cl)cc2)C(=O)O)C[C@@H]2CCCC[C@@H]21
B3: Apelin polypeptide SEQ ID NO: 481 (peptide)
peptide: Tridecanoyl-[AC4Abu″][AEEA][AEEA][dR][dQ][hArg]P[hArg][Cha]SHKG[Oic][Nle]P[Phe(4-Cl)]-OH
modifications: reading uncertain; also: printed as {TDA}[AC4Abu][Aeea][Aeea]rq[hArg]P[hArg][Cha]SHKG[Oic][Nle]P[4-Cl-F]{COOH}
B4: Apelin polypeptide SEQ ID NO: 454 (peptide)
peptide: Tridecanoyl-[AC4Abu″][AEEA][AEEA][dQ][hArg][Aib][dR][Cha]SHKG[Oic][Nle]P[Phe(4-Cl)]-OH
modifications: reading uncertain; also: printed as {TDA}[AC4Abu][Aeea][Aeea]q[hArg][Aib]r[Cha]SHKG[Oic][Nle]P[4-Cl-F]{COOH}
B5: Apelin polypeptide SEQ ID NO: 471 (peptide)
peptide: Tridecanoyl-[AC4Abu″][AEEA][AEEA]QRP[NMehArg]LSHKGP[Nle]P[2Nal]-OH
modifications: reading uncertain; also: printed as {TDA}[AC4Abu][Aeea][Aeea]QRP[NMehArg]LSHKGP[Nle]P[2Nal]{COOH}

Target: T1, rat APJ receptor
Assay: cell-based or functional assay

EC50 Rat APJ Receptor [nM] | Binder
16.1 | KLRKHNCLQRRCMPLHSRVPFP [SEQ ID NO: 15]
0.871 | Ac-[hArg][dR]Q[hArg]E[dR][NMeL]SHKG[Oic][Phe(4-I)]P[dBip]-OH [SEQ ID NO: 78]
0.384 | QRPRLSHKGPXPF ({Acetyl-NH}QRP[NMeArg]LSHKGP[Nle]P[4-Cl-F]{COOH}) [SEQ ID NO: 68]
1 | XXXQRPRLSHKGPXPF ({AdpA}[AC4Abu][Aeea][Aeea]QRP[NMeArg]LSHKGP[Nle]P[4-Cl-F]{COOH}) [SEQ ID NO: 461]
0.903 | XXXQRPRLSHKGPXPF ({DDDA}[AC4Abu][Aeea][Aeea]QRP[NMeArg]LSHKGP[Nle]P[4-Cl-F]{COOH}) [SEQ ID NO: 510]
6.69 | XXXQRPRLSHKGPXPF ({hexanoyl}[AC4Abu][Aeea][Aeea]QrP[hArg][aMeLeu]SHKGP[Nle]P[4-Cl-F]{COOH}) [SEQ ID NO: 514]
47.2 | B1
9.74 | QRPRLSHKGPXPF ({Acetyl-NH}QrP[hArg][aMeLeu]SHKGP[Nle]P[4-Cl-F]{COOH}) [SEQ ID NO: 70]
0.453 | XXXQRPRLSHKGPXPF ({Butanoyl}[AC4Abu][Aeea][Aeea]QRP[NMeArg]LSHKGP[Nle]P[4-Cl-F]{COOH}) [SEQ ID NO: 491]
5.94 | XXXQRPRLSHKGPXPF ({AdpA}[AC4Abu][Aeea][Aeea]QrP[hArg][aMeLeu]SHKGP[Nle]P[4-Cl-F]{COOH}) [SEQ ID NO: 515]
2.75 | QRPRLSHKGPXPF ({Acetyl-NH}Q[hArg]P[NMeArg][aMeLeu]SHKGP[Nle]P[4-Cl-F]{COOH}) [SEQ ID NO: 71]

Target: T2, rat APJ receptor
Assay: cell-based or functional assay

EC50 Rat APJ Receptor (GTPγS assay) [nM] | Binder
0.379 | B2
0.242 | XXXQRPRLSHKGPXPF ({TDA}[AC4Abu][Aeea][Aeea]QRP[NMeArg]LSHKGP[Nle]P[4-Cl-F]{COOH}) [Apelin polypeptide SEQ ID NO: 287]
0.165 | XXXQRPRLSHKGPXPF ({TDA}[AC4Abu][Aeea][Aeea]QRP[NMeArg]L[aMeS]HKGP[Nle]P[4-Cl-F]{COOH}) [Apelin polypeptide SEQ ID NO: 468]
0.06 | XXXQRPRLSHKGPXPF ({TDA}[AC4Abu][Aeea][Aeea]QRP[hArg]LSHKGP[Nle]P[4-Cl-F]{COOH}) [Apelin polypeptide SEQ ID NO: 355]
0.382 | XXXQRPRLSHKGPXPF ({TDA}[AC4Abu][Aeea][Aeea]QRP[NMeArg]LSHKGP[Nle][BhPro][4-Cl-F]{COOH}) [Apelin polypeptide SEQ ID NO: 426]
0.341 | B3
0.444 | Tridecanoyl-[AC4Abu″][AEEA][AEEA][dQ]RP[NMeR][αMeL][BhSer]HKG[Oic][Nle][αMeP][Phe(4-Cl)]-OH (reading uncertain) [Apelin polypeptide SEQ ID NO: 518]
5.35 | B4
0.42 | XXXQXPRLSHKGPXPF ({TDA}[AC4Abu][Aeea][Aeea]Q[Cit]P[NMeArg]LSHKGP[Nle]P[4-Cl-F]{COOH}) [Apelin polypeptide SEQ ID NO: 400]
0.229 | XXXQRPRLSHKGPXPF ({TDA}[AC4Abu][Aeea][Aeea]Q[hArg]P[NMehArg]LSHKGP[Nle]P[4-Cl-F]{COOH}) [Apelin polypeptide SEQ ID NO: 483]
0.178 | XXXQRPRLSHKGPXPF ({TDA}[AC4Abu][Aeea][Aeea]QrP[NMehArg][aMeLeu]SHKGP[Nle]P[4-Cl-F]{COOH}) [Apelin polypeptide SEQ ID NO: 456]
0.166 | XXXQRPRLSHKGPXPF ({TDA}[AC4Abu][Aeea][Aeea]QRP[NMeArg][aMeLeu]SHKG[aMePro][Nle]P[4-Cl-F]{COOH}) [Apelin polypeptide SEQ ID NO: 387]
1.33 | XXXQRPRLSHKGPXPF ({TDA}[AC4Abu][Aeea][Aeea]QRP[NMeArg]LS[rHis]KGP[Nle]P[4-Cl-F]{COOH}) [Apelin polypeptide SEQ ID NO: 469]
0.0974 | B5
0.24 | XXXQRPRLSHKGPXPF ({TDA}[AC4Abu][Aeea][Aeea]Q[hArg]P[hArg]LSHKGP[Nle]P[4-Cl-F]{COOH}) [Apelin polypeptide SEQ ID NO: 357]
0.184 | Tridecanoyl-[AC4Abu″][AEEA][AEEA]Q[hArg]P[NMeR][Cha]SHKGP[Nle]P[Phe(4-Cl)]-OH (reading uncertain) [Apelin polypeptide SEQ ID NO: 408]
0.767 | XXXQRPRLSHKGPXPF ({TDA}[AC4Abu][Aeea][Aeea]Q[NMehArg]P[NMeArg][aMeLeu]SHKGP[Nle]P[4-Cl-F]{COOH}) [Apelin polypeptide SEQ ID NO: 484]
0.23 | XXXQRPRLSHKGPXPF ({TDA}[AC4Abu][Aeea][Aeea]QRP[NMeArg][NMeLeu]SHKGP[Nle]P[4-Cl-F]{COOH}) [Apelin polypeptide SEQ ID NO: 459]
0.12 | XXXQRPRLSHKGPXPF ({TDA}[AC4Abu][Aeea][Aeea]QRP[NMeArg][BLeu]SHKGP[Nle]P[4-Cl-F]{COOH}) [Apelin polypeptide SEQ ID NO: 458]
0.253 | Tridecanoyl-[AC4Abu″][AEEA][AEEA]QRP[NMeR][Cha]SHKG[αMeP][Nle]P[Phe(4-Cl)]-OH (reading uncertain) [Apelin polypeptide SEQ ID NO: 418]
0.0564 | XXXQRPRLSHKGPXPF ({TDA}[AC4Abu][Aeea][Aeea]QRP[NMeArg][aMeLeu]SHKGP[Nle]P[4-Cl-F]{COOH}) [Apelin polypeptide SEQ ID NO: 457]
0.346 | Tridecanoyl-[AC4Abu″][AEEA][AEEA]QRP[NMeR][Cha]SHKG[Pip′][Nle]P[Phe(4-Cl)]-OH (reading uncertain) [Apelin polypeptide SEQ ID NO: 416]
0.41 | XXXQRPRLSHKGPXPF ({TDA}[AC4Abu][Aeea][Aeea]QrP[hArg][aMeLeu]SHKGP[Nle]P[4-Cl-F]{COOH}) [Apelin polypeptide SEQ ID NO: 485]
